Paper PMC5624674, “CbtA toxin of Escherichia coli inhibits cell division and cell elongation via direct and independent interactions with FtsZ and MreB” (PLoS Genetics, 2017)
Residue numbers refer to the chain shown, from its start.

B1: α-FtsZ fusion protein (wild-type E. coli FtsZ) (natural protein, UniProt P0A9A6 1-383, looked up)
chain: MFEPMELTNDAVIKVIGVGGGGGNAVEHMVRERIEGVEFFAVNTDAQALRKTAVGQTIQIGSGITKGLGAGANPEVGRNAADEDRDALRAALEGADMVFIAAGMGGGTGTGAAPVVAEVAKDLGILTVAVVTKPFNFEGKKRMAFAEQGITELSKHVDSLITIPNDKLLKVLGRGISLLDAFGAANDVLKGAVQGIAELITRPGLMNVDFADVRTVMSEMGYAMMGSGVASGEDRAEEAAEMAISSPLLEDIDLSGARGVLVNITAGFDLRLDEFETVGNTIRAFASDNATVVIGTSLDPDMNDELRVTVVATGIGMDKRPEITLVTNKQVQQPVMDRYQQHGMAPLTQEQKPVAKVVNDNAPQTAKEPDYLDIPAFLRKQAD
notes: also called λCI-FtsZ; Eco FtsZ; not shown: RNA polymerase α subunit N-terminal domain, N-terminal, kept
B2: α-FtsZ-D180K (natural protein, E. coli, UniProt P0A9A6 1-383, looked up)
chain: B1 chain with D180K
notes: not shown: RNA polymerase α subunit N-terminal domain, N-terminal, kept
B3: α-FtsZ-D180N (natural protein, E. coli, UniProt P0A9A6 1-383, looked up)
chain: B1 chain with D180N
notes: as for B2
B4: α-FtsZ-L169P (natural protein, E. coli, UniProt P0A9A6 1-383, looked up)
chain: B1 chain with L169P
notes: as for B2
B5: α-FtsZ-S177P (natural protein, E. coli, UniProt P0A9A6 1-383, looked up)
chain: B1 chain with S177P
notes: as for B2
B6: α-MreB-E196G (natural protein, E. coli, UniProt P0A9X4 1-347, looked up)
chain: MLKKFRGMFSNDLSIDLGTANTLIYVKGQGIVLNEPSVVAIRQDRAGSPKSVAAVGHDAKQMLGRTPGNIAAIRPMKDGVIADFFVTEKMLQHFIKQVHSNSFMRPSPRVLVCVPVGATQVERRAIRESAQGAGAREVFLIEEPMAAAIGAGLPVSEATGSMVVDIGGGTTEVAVISLNGVVYSSSVRIGGDRFDGAIINYVRRNYGSLIGEATAERIKHEIGSAYPGDEVREIEVRGRNLAEGVPRGFTLNSNEILEALQEPLTGIVSAVMVALEQCPPELASDISERGMVLTGGGALLRNLDRLLMEETGIPVVVAEDPLTCVARGGGKALEMIDMHGGDLFSEE
notes: as for B2
B7: α-MreB-E262G (natural protein, E. coli, UniProt P0A9X4 1-347, looked up)
chain: B6 chain with G196E, E262G
notes: as for B2
B8: α-MreB-I126V (natural protein, E. coli, UniProt P0A9X4 1-347, looked up)
chain: B6 chain with I126V, G196E
notes: as for B2
B9: α-MreB-V173A (natural protein, E. coli, UniProt P0A9X4 1-347, looked up)
chain: B6 chain with V173A, G196E
notes: as for B2

What was measured:
Assay in all cases: two-hybrid
[1] = target: the molecule itself
[2] = target: T1, λCI-ZipACTD (residues 186–328) (E. coli, UniProt P77173 186-328); settings: partners not purified
T1 construct: also called C-terminal domain of ZipA; not shown: λCI, N-terminal, kept

[3] = target: T2, λCI-CbtA fusion protein (wild-type CbtA toxin of E. coli) (E. coli, UniProt P64524 1-124); settings: partners not purified
T2 construct: also called YeeV; source: bacterial two-hybrid fusion, produced in E. coli reporter strain FW102 OL2-62; not shown: λCI, N-terminal, kept
T2 sequence: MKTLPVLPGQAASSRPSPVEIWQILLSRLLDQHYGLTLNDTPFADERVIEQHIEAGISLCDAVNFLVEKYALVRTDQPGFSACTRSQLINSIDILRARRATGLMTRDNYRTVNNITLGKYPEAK

[4] = target: T3, λCI-CbtA-V48E (E. coli, UniProt P64524 1-124, V48E); settings: partners not purified
T3 construct: source: bacterial two-hybrid fusion, produced in E. coli reporter strain FW102 OL2-62; not shown: λCI, N-terminal, kept
T3 sequence: T2 sequence with V48E

[5] = target: B1; settings: partners not purified
[6] = target: T4, λCI-RodZNTD (residues 2–84) (E. coli, UniProt P27434 2-84); settings: partners not purified
T4 construct: also called cytoplasmic N-terminal domain of RodZ; not shown: λCI, N-terminal, kept
T4 sequence (P27434 2-84): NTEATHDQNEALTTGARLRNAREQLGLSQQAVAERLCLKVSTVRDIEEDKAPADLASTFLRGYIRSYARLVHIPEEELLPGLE

Binder	percent reduction of lacZ expression against wild-type α-FtsZ [5] [%]	percent reduction of lacZ expression against wild-type α-MreB [6] [%]	also measured
B1			fold increase in lacZ expression [1]: 4 fold; fold increase in lacZ expression [2]: 10 fold; fold increase in lacZ expression [3]: 18 fold
B2			fold increase in lacZ expression [4]: 9 fold
B3	< 25		
B4	< 25		
B5	< 25		
B6		< 30	
B7		< 30	
B8		< 30	
B9		< 30	
